Measured values taken from US20230212587A1, “Mutant Hydroxyphenylpyruvate Dioxygenase Polypeptide, Encoding Gene Thereof and Use Therefor” (Beijing Dabeinong Biotechnology Co., Ltd., priority 2019, published 2023).
Changes are numbered by the printed parent chain. Names may count otherwise.

Test system: Arabidopsis thaliana T1 plants
Experiment: Topramezone tolerance of transgenic Arabidopsis thaliana T1 plants (pesticide damage grade by bleached leaf area, score, resistance evaluation)
Type: in vivo
Design: score: scale not given here
Text: The Arabidopsisthaliana T1 plants into which the AsHPPDm-F372A-02 nucleotide sequence was introduced, Arabidopsis thaliana T1 plants into which the AsHPPD-02 nucleotide sequence was introduced and wild-type Arabidopsisthaliana plants (18 days after sowing) were sprayed with topramezone at four different concentrations, i.e., 25 g ai/ha (one-fold field concentration, 1×), 50 g ai/ha (two-fold field concentration, 2×), 100 g ai/ha (four-fold field concentration, 4×) and 0 g ai/ha (water, 0×) to determine the tolerance of Arabidopsisthaliana to the herbicide. The degree of damage caused by the herbicide was measured for each plant according to the proportion of bleached leaf area (the proportion of bleached leaf area=bleached leaf area/total leaf area×100%) 7 days after spraying (7 DAT): the case where there is basically no bleached phenotype is defined as grade 0, the case where the proportion of bleached leaf area is less than 50% is defined as grade 1,the case where the proportion of bleached leaf area is more than 50% is defined as grade 2, and the case where the proportion of bleached leaf area is 100% grade is defined as grade 3.
(§1) According to the method as described above in point 6 of Example 1, the aforementioned Arabidopsisthaliana T1 plants and wild-type Arabidopsisthaliana plants (18 days after sowing) were sprayed with topramezone at three different concentrations respectively, i.e., 25 g ai/ha (one-fold field concentration, 1×), 100 g ai/ha (four-fold field concentration, 4×) and 0 g ai/ha(water, 0×) to detect the tolerance of Arabidopsisthaliana to the herbicide.
as §1, with “1x),” for “1×),”, “4x)” for “4×)”, “ai/ha (water, 0x)” for “ai/ha(water, 0×)”
According to the method as described above in point 6 of Example 1, the above-mentioned Arabidopsisthaliana T1 plants, Arabidopsisthaliana T1 plants into which the AsHPPD-02 nucleotide sequence was introduced, Arabidopsisthaliana T1 plants into which the PfHPPD-02 nucleotide sequence was introduced, and wild-type Arabidopsisthaliana plants (18 days after sowing) were sprayed with topramezone at four different concentrations respectively, that is, 25 g ai/ha (one-fold field concentration, 1x), 50 g ai/ha (two-fold field concentration, 2x), 100 g ai/ha (four-fold field concentration, 4x) and 0 g ai/ha (water, Ox) to detect the herbicide tolerance of Arabidopsisthaliana.
According to the method as described in point 6 of Example 1, the above-mentioned Arabidopsisthaliana T1 plants and wild-type Arabidopsisthaliana plants (18 days after sowing) were sprayed with topramezone at two different concentrations respectively, that is, 25 g ai/ha (one-fold field concentration, 1x) and 100 g ai/ha (four-fold field concentration, 4x) to detect the herbicide tolerance of Arabidopsisthaliana,. […]

[1] = Arabidopsis thaliana T1 plants sprayed with topramezone
[2] = topramezone 25 g ai/ha, mutation combination, Table 8
[3] = topramezone 100 g ai/ha, mutation combination, Table 8
[4] = saturation mutation of HPPD from Avena sativa source (label F372X = AsHPPDm-F372X), topramezone 25, 50, 100 g ai/ha
[5] = topramezone 25 g ai/ha (1x), HPPD from Avena sativa source
[6] = topramezone 25 g ai/ha (1x), number of plants, HPPD from Avena sativa source
[7] = topramezone 50 g ai/ha (2x), HPPD from Avena sativa source
[8] = topramezone 50 g ai/ha (2x), number of plants, HPPD from Avena sativa source
[9] = topramezone 100 g ai/ha (4x), HPPD from Avena sativa source
[10] = topramezone 100 g ai/ha (4x), number of plants, HPPD from Avena sativa source
[11] = non-372 position mutants, number of plants (of 20) in this grade, topramezone 25 g ai/ha (1x)
[12] = non-372 position mutants, number of plants (of 20) in this grade, topramezone 100 g ai/ha (4x)
[13] = non-372 position mutants, score for pesticide damage 0-100, topramezone 25 g ai/ha (1x)
[14] = non-372 position mutants, score for pesticide damage 0-100, topramezone 100 g ai/ha (4x)
[15] = non-372 position mutants, topramezone 25 g ai/ha (1x)
[16] = non-372 position mutants, topramezone 100 g ai/ha (4x)

B1: AsHPPDm-A110: Avena sativa HPPD with deletion of alanine at position 110, SEQ ID NO: 414 (protein)
chain: MPPTPATATGAAAAAVTPEHAARSFPRVVRVNPRSDRFPVLSFHHVELWCADAASAAGRFSFALGAPLAARSDLSTGNSAHASLLLRSGALAFLFTAPYAPPPQEAATAATASIPSFSADAARTFAAAHGLAVRSVGVRVADAAEAFRVSVAGGARPAFAPADLGHGFGLAEVELYGDVVLRFVSYPDETDLPFLPGFERVSSPGAVDYGLTRFDHVVGNVPEMAPVIDYMKGFLGFHEFAEFTAEDVGTTESGLNSVVLANNSEAVLLPLNEPVHGTKRRSQIQTYLEYHGGPGVQHIALASNDVLRTLREMRARTPMGGFEFMAPPQAKYYEGVRRIAGDVLSEEQIKECQELGVLVDRDDQGVLLQIFTKPVGDRPTFFLEMIQRIGCMEKDEVGQEYQKGGCGGFGKGNFSELFKSIEDYEKSLEVKQSVVAQKS
modifications: AsHPPDm-A110 Amino Acid Sequence
[1]
  tolerance to topramezone, in words: a certain tolerance to low concentration of topramezone
[2]
  Grade 0 (number of plants): 4
  Grade 1 (number of plants): 16
  Grade 2 (number of plants): 0
  Grade 3 (number of plants): 0
  Resistance Grade: Moderately resistant
  score: 27
[3]
  Grade 0 (number of plants): 0
  Grade 1 (number of plants): 0
  Grade 2 (number of plants): 14
  Grade 3 (number of plants): 6
  Resistance Grade: Non-resistant
  score: 77

B2: F372Q (protein, listed as Avena sativa)
chain: MPPTPATATGAAAAAVTPEHAARSFPRVVRVNPRSDRFPVLSFHHVELWCADAASAAGRFSFALGAPLAARSDLSTGNSAHASLLLRSGALAFLFTAPYAPPPQEAATAAATASIPSFSADAARTFAAAHGLAVRSVGVRVADAAEAFRVSVAGGARPAFAPADLGHGFGLAEVELYGDVVLRFVSYPDETDLPFLPGFERVSSPGAVDYGLTRFDHVVGNVPEMAPVIDYMKGFLGFHEFAEFTAEDVGTTESGLNSVVLANNSEAVLLPLNEPVHGTKRRSQIQTYLEYHGGPGVQHIALASNDVLRTLREMRARTPMGGFEFMAPPQAKYYEGVRRIAGDVLSEEQIKECQELGVLVDRDDQGVLLQIQTKPVGDRPTFFLEMIQRIGCMEKDEVGQEYQKGGCGGFGKGNFSELFKSIEDYEKSLEVKQSVVAQKS
modifications: AsHPPD Amido Acid Sequence
[4]
  tolerance to topramezone, in words: better tolerance
[5]
  Resistance Grade: Highly resistant
  score: 0
[6]
  Grade 0: 20
  Grade 1: 0
  Grade 2: 0
  Grade 3: 0
[7]
  Resistance Grade: Highly resistant
  score: 0
[8]
  Grade 0: 20
  Grade 1: 0
  Grade 2: 0
  Grade 3: 0
[9]
  Resistance Grade: Highly resistant
  score: 0
[10]
  Grade 0: 20
  Grade 1: 0
  Grade 2: 0
  Grade 3: 0

B3: AsHPPDm-Q284A: Avena sativa HPPD mutant Q284A, SEQ ID NO: 420 (protein)
chain: B2 chain with Q284A, Q372F
modifications: AsHPPDm-Q284A Amino Acid Sequence
[1]
  tolerance to topramezone, in words: no significant difference
[11]
  Grade 0: 0
  Grade 1: 2
  Grade 2: 16
  Grade 3: 2
[12]
  Grade 0: 0
  Grade 1: 0
  Grade 2: 5
  Grade 3: 15
[13]
  score: 67
[14]
  score: 92
[15]
  Resistance Grade: poorly resistant (poorly resistant plants (scores 34-67))
[16]
  Resistance Grade: non-resistant (non-resistant plants (scores 68-100))

B4: AsHPPDm-L359W: Avena sativa HPPD mutant L359W, SEQ ID NO: 422 (protein)
chain: B2 chain with L359W, Q372F
modifications: AsHPPDm-L359W Amino Acid Sequence
[1]
  tolerance to topramezone, in words: no significant difference
[11]
  Grade 0: 0
  Grade 1: 0
  Grade 2: 2
  Grade 3: 18
[12]
  Grade 0: 0
  Grade 1: 0
  Grade 2: 0
  Grade 3: 20
[13]
  score: 97
[14]
  score: 100
[15]
  Resistance Grade: non-resistant (non-resistant plants (scores 68-100))
[16]
  Resistance Grade: non-resistant (non-resistant plants (scores 68-100))

B5: F372D (protein, listed as Avena sativa)
chain: B2 chain with Q372D
modifications: AsHPPD Amido Acid Sequence
[4]
  tolerance to topramezone, in words: better tolerance
[5]
  Resistance Grade: Highly resistant
  score: 7
[6]
  Grade 0: 16
  Grade 1: 4
  Grade 2: 0
  Grade 3: 0
[7]
  Resistance Grade: Highly resistant
  score: 0
[8]
  Grade 0: 20
  Grade 1: 0
  Grade 2: 0
  Grade 3: 0
[9]
  Resistance Grade: Highly resistant
  score: 0
[10]
  Grade 0: 20
  Grade 1: 0
  Grade 2: 0
  Grade 3: 0

B6: PfHPPDm-G413W: Pseudomonas fluorescens HPPD with G336W (position 413 of SEQ ID NO: 1), SEQ ID NO: 418 (protein)
chain: MADLYENPMGLMGFEFIEFASPTPGTLEPIFEIMGFTKVATHRSKNVHLYRQGEINLILNNEPNSIASYFAAEHGPSVCGMAFRVKDSQKAYNRALELGAQPIHIDTGPMELNLPAIKGIGGAPLYLIDRFGEGSSIYDIDFVYLEGVERNPVGAGLKVIDHLTHNVYRGRMVYWANFYEKLFNFREARYFDIKGEYTGLTSKAMSAPDGMIRIPLNEESSKGAGQIEEFLMQFNGEGIQHVAFLTDDLVKTWDALKKIGMRFMTAPPDTYYEMLEGRLPDHGEPVDQLQARGILLDGSSVEGDKRLLLQIFSETLMGPVFFEFIQRKGDDGFGEWNFKALFESIERDQVRRGVLTAD
modifications: PfHPPDm-G413W Amino Acid Sequence
[1]
  tolerance to topramezone, in words: a certain tolerance to low concentration of topramezone
[2]
  Grade 0 (number of plants): 2
  Grade 1 (number of plants): 18
  Grade 2 (number of plants): 0
  Grade 3 (number of plants): 0
  Resistance Grade: Moderately resistant
  score: 30
[3]
  Grade 0 (number of plants): 0
  Grade 1 (number of plants): 0
  Grade 2 (number of plants): 10
  Grade 3 (number of plants): 10
  Resistance Grade: Non-resistant
  score: 83
